Test results from patent US20220213165A1 (University of Texas, published 2022).
Square brackets hold non-standard residues; d marks the D form. Ends that are not written are not given here.

T1: recombinant human EphB4 (rhEphB4) (human, UniProt P54760 16-539, limits assumed)
T1 construct: Bought protein; also called purified EphB4; immobilized EphB4
T1 sequence (looked up): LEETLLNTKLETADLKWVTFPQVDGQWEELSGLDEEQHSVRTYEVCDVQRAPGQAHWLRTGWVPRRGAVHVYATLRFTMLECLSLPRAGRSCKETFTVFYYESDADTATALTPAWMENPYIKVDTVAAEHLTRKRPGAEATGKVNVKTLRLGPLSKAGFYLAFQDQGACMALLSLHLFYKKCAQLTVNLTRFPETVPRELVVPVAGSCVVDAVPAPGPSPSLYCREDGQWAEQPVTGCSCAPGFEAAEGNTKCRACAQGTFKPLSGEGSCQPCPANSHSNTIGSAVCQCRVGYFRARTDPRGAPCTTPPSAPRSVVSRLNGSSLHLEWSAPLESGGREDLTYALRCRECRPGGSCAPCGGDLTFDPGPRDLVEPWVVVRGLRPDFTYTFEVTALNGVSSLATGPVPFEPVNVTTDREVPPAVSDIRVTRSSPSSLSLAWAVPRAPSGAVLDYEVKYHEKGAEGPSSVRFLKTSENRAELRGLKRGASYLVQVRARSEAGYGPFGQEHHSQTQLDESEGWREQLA

T2: EphB4 on the surface of A2780cp20 cells (human, UniProt P54760 16-987)
T2 construct: whole, on cells; also called EphB4 in human HeyA8 ovarian cancer cells; EphB4 in human ovarian cancer cells A2780cp20
T2 sequence (looked up): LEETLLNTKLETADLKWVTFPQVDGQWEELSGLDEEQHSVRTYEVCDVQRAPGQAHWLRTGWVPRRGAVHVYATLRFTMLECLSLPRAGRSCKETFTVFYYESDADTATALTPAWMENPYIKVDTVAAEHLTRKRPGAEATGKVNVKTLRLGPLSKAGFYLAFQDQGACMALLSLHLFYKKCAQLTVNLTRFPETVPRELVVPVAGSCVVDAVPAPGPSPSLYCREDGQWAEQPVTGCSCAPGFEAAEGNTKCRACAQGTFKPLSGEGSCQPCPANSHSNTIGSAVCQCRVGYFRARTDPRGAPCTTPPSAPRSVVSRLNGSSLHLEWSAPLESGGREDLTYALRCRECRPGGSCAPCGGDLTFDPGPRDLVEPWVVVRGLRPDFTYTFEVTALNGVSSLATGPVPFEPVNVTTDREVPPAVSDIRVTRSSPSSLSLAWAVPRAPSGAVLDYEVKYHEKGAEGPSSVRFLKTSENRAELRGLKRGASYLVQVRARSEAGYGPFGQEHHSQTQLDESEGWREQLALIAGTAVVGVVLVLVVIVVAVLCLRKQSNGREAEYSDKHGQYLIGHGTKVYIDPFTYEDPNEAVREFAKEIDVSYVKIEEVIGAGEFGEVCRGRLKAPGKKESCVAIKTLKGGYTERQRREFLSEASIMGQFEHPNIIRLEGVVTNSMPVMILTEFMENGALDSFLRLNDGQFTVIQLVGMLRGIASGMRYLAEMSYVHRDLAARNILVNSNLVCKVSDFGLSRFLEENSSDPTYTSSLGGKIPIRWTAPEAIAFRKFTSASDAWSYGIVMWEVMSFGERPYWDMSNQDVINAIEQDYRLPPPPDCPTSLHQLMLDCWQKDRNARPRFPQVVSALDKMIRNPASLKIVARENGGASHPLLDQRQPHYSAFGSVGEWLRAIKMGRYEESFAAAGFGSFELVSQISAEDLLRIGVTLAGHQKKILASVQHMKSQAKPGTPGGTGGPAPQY

B1: B4-004, TNY(dL)FSPNGPIARAW (peptide)
peptide: TNY[dL]FSPNGPIARAW
B2: TNYLFSPNGPIAR(dA)W (peptide)
peptide: TNYLFSPNGPIAR[dA]W
notes: also called TNYL-RAW with D-Ala at P14
B3: YLFSPNGPIARAW (peptide)
peptide: YLFSPNGPIARAW
notes: also called TNYL-RAW truncated of N-terminus Thr-Asn (P1-P2)
B4: TNYLFSPNGPIARA(dW) (peptide)
peptide: TNYLFSPNGPIARA[dW]
notes: also called TNYL-RAW with D-Trp at P15
B5: B4-001, Cyclo(KTNYLFSPNGPIARAWD) (peptide)
peptide: KTNYLFSPNGPIARAWD
modifications: not fully specified (bridges); printed as Cyclo(KTNYLFSPNGPIARAWD); also: cyclic, ring-closing atoms not given here
B6: BIDEN-AP (bi-directional ephrin agonist peptide), TN(dY)LFSPNGPIARAW (peptide)
peptide: TN[dY]LFSPNGPIARAW
notes: Synthetic 15-mer made by solid phase synthesis on Rink resin; also called EphB4 agonist peptide
B7: T(dN)YLFSPNGPIARAW (peptide)
peptide: T[dN]YLFSPNGPIARAW
notes: also called TNYL-RAW with D-Asn at P2
B8: NYLFSPNGPIARAW (peptide)
peptide: NYLFSPNGPIARAW
notes: also called TNYL-RAW truncated of N-terminus Thr-P1
B9: B4-005, TNYL(dF)SPNGPIARAW (peptide)
peptide: TNYL[dF]SPNGPIARAW
B10: B4-006, TNYLF(dS)PNGPIARAW (peptide)
peptide: TNYLF[dS]PNGPIARAW
B11: TNYLFSPNGPIAR (peptide)
peptide: TNYLFSPNGPIAR
notes: also called TNYL-RAW truncated of C-terminus Ala-Trp (P14-P15)
B12: B4-002, TNYLFSPNGPIA(dR)AW (peptide)
peptide: TNYLFSPNGPIARAW
modifications: D-Arg at position 13
B13: TNYL-RAW (peptide)
peptide: TNYLFSPNGPIARAW
notes: also called EphB4 antagonist TNYL-RAW peptide
B14: B4-008, TNYLFSPNGPIARA (peptide)
peptide: TNYLFSPNGPIARA
notes: also called TNYL-RAW truncated of C-terminus Trp-P15

Legend:
[1] = target: T1, recombinant human EphB4 (rhEphB4); assay: SPR, peptide over immobilized EphB4
[2] = target: T1, recombinant human EphB4 (rhEphB4); assay: SPR (BIACore), peptide 1.6-800 nM injected over immobilized rhEphB4
Method: Peptides in concentrations of 1.6 nM to 800 nM were injected over the rhEphB4 sensor chips, and the magnitude of peptide binding to immobilized EphB4 in response units (RU) was recorded.
(§1) Surface plasmon resonance (SPR) binding and competition assays. A stock solution of EphB4 in PBS (100 μg/mL) was diluted to 25 μg/mL with 10 mM sodium acetate buffer (pH 4.5) and immobilized to CM5 sensor chips using the amine coupling reaction according to manufacturer-provided procedures (BIACore). Briefly, the surfaces of the chips in flow cells (FC)-1 and FC-2 were activated by exposing chips to a mixture of 200 mM N-ethyl-N′-dimethylaminopropyl carbodiimide and 50 mM N-hydroxysuccinimide for 7 min. FC-1 was used as a reference surface and was directly deactivated by injecting 1 M ethanolamine at pH 8.5 for 7 min. FC-2 was injected with 25 μg/mL human or murine EphB4 followed by injection of 1 M ethanolamine to block the remaining activated ester groups on the surface. The chips were allowed to stabilize for at least 2 h in HBSEP running buffer before injection of test analytes.

[3] = target: T1, recombinant human EphB4 (rhEphB4); assay: as above; remark: listed apart in the source
Method: FIG. 10: BIACore sensorgrams of binding of truncated peptides to immobilized rhEphB4. Retention of a peptide on a sensor chip was indicated by a change in response units (RU) over the course of the 180-s injection interval followed by a 210-s washing interval. Peptides in concentrations of 1.6 nM to 800 nM were injected over the rhEphB4 sensor chip, and the magnitude of peptide binding to immobilized EphB4 was recorded.
as §1

[4] = target: T1, recombinant human EphB4 (rhEphB4); assay: SPR, peptide over immobilized EphB4, 1:1 mass transfer interaction model
Method: as §1

[5] = target: T2, EphB4 on the surface of A2780cp20 cells; assay: flow cytometry competition: A2780cp20 cells with EFNB2-Fc (20 nM) and BIDEN-AP (0-100 µM), PE-labeled anti-Fc detection
Method: D-Tyr-P3 is highlighted in red. […] Vertical axes, in response units (RU), represent binding of the peptide to immobilized EphB4. […] Individual duplicates were performed in each condition. Data are presented as mean±SD.
Cell-based binding assay. […] Cells were analyzed in a Cellquest fluorocytometer (BD Bioscience, San Jose, Calif.). The experiments were run in duplicate.

[6] = target: T1, recombinant human EphB4 (rhEphB4); assay: SPR competition: BIDEN-AP (2-1000 nM) mixed with human EphB4 (30 nM), injected on EFNB2-Fc-coated CM5 chip

Row | Binder | Kd [1] | Kd [2] | further results
1 | B1 | 65 nM |  | 
2 | B2 |  | 43 nM | 
3 | B3 |  |  | Kd [3]: 5.2 nM
4 | B4 |  | 8 nM | 
5 | B5 | 4.4 nM |  | 
6 | B6 |  |  | Kd [4]: 7 nM; IC50 [5]: ~1000 nM; IC50 [6]: 4 nM
7 | B7 |  | 5 nM | 
8 | B8 |  |  | Kd [3]: 4.2 nM
9 | B9 | 75 nM | 841 nM | 
10 | B10 |  | 7700 nM | 
11 | B11 |  |  | Kd [3]: 192 nM
12 | B12 | 39 nM |  | 
13 | B13 | 3.1 nM |  | 
14 | B14 | 13 nM |  | Kd [3]: 60 nM
